# Paper PMC8260793, “A split protease-E. coli ClpXP system quantifies protein–protein interactions in Escherichia coli cells” (Communications Biology, 2021)
# T1: Cas7 of E. coli K12 Type I-E CRISPR/Cas complex (E. coli K12, UniProt Q46899 1-363)
# T1 construct: Cas7, effector of the type I-E CRISPR/Cas complex of E. coli K12; source: E. coli BL21(DE3) or BL21(DE3)-SPEC, expressed in the cells (IPTG induction)
# T1 sequence (looked up): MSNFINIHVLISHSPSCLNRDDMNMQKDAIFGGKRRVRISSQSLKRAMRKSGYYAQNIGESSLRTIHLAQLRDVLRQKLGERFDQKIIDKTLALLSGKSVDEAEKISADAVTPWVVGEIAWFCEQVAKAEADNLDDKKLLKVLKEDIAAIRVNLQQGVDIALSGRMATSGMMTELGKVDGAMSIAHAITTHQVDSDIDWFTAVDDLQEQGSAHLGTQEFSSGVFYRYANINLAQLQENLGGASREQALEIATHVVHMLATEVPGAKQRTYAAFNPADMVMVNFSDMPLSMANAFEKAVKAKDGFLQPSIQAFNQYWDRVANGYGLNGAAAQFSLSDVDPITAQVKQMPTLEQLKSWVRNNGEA
# T2: Cas2 of E. coli K12 Type I-E CRISPR/Cas complex (E. coli K12, UniProt P45956 1-94)
# T2 construct: Cas2, effector of the type I-E CRISPR/Cas complex of E. coli K12; source: E. coli BL21(DE3) or BL21(DE3)-SPEC, expressed in the cells (IPTG induction)
# T2 sequence (looked up): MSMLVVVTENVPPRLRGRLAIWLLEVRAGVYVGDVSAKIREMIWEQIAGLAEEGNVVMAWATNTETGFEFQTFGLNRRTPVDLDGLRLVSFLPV
# T3: Cas5 of E. coli K12 Type I-E CRISPR/Cas complex (E. coli K12, UniProt Q46898 1-224)
# T3 construct: Cas5, effector of the type I-E CRISPR/Cas complex of E. coli K12; source: E. coli BL21(DE3) or BL21(DE3)-SPEC, expressed in the cells (IPTG induction)
# T3 sequence (looked up): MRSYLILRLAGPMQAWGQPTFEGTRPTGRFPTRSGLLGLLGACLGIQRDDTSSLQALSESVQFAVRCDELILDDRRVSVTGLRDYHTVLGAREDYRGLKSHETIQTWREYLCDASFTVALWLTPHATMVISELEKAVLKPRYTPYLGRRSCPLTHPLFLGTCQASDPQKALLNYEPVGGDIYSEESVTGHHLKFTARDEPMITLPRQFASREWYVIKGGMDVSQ
# T4: Cas11 of E. coli K12 Type I-E CRISPR/Cas complex (E. coli K12, UniProt P76632 1-160)
# T4 construct: Cas11, effector of the type I-E CRISPR/Cas complex of E. coli K12; source: E. coli BL21(DE3) or BL21(DE3)-SPEC, expressed in the cells (IPTG induction)
# T4 sequence (looked up): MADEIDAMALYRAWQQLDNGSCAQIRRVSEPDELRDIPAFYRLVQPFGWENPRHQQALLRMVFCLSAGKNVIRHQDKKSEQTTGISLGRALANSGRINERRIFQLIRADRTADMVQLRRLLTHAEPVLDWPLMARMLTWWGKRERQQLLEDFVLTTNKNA
# B1: Cas6 of E. coli K12 Type I-E CRISPR/Cas complex (natural protein, UniProt Q46897 1-199, looked up)
# chain: MYLSKVIIARAWSRDLYQLHQGLWHLFPNRPDAARDFLFHVEKRNTPEGCHVLLQSAQMPVSTAVATVIKTKQVEFQLQVGVPLYFRLRANPIKTILDNQKRLDSKGNIKRCRVPLIKEAEQIAWLQRKLGNAARVEDVHPISERPQYFSGDGKSGKIQTVCFEGVLTINDAPALIDLVQQGIGPAKSMGCGLLSLAPL
# notes: Cas6, effector of the type I-E CRISPR/Cas complex of E. coli K12; source: E. coli BL21(DE3) or BL21(DE3)-SPEC, expressed in the cells (IPTG induction)
# B2: Cas3 of E. coli K12 Type I-E CRISPR/Cas complex (natural protein, UniProt P38036 1-888, looked up)
# chain: MEPFKYICHYWGKSSKSLTKGNDIHLLIYHCLDVAAVADCWWDQSVVLQNTFCRNEMLSKQRVKAWLLFFIALHDIGKFDIRFQYKSAESWLKLNPATPSLNGPSTQMCRKFNHGAAGLYWFNQDSLSEQSLGDFFSFFDAAPHPYESWFPWVEAVTGHHGFILHSQDQDKSRWEMPASLASYAAQDKQAREEWISVLEALFLTPAGLSINDIPPDCSSLLAGFCSLADWLGSWTTTNTFLFNEDAPSDINALRTYFQDRQQDASRVLELSGLVSNKRCYEGVHALLDNGYQPRQLQVLVDALPVAPGLTVIEAPTGSGKTETALAYAWKLIDQQIADSVIFALPTQATANAMLTRMEASASHLFSSPNLILAHGNSRFNHLFQSIKSRAITEQGQEEAWVQCCQWLSQSNKKVFLGQIGVCTIDQVLISVLPVKHRFIRGLGIGRSVLIVDEVHAYDTYMNGLLEAVLKAQADVGGSVILLSATLPMKQKQKLLDTYGLHTDPVENNSAYPLINWRGVNGAQRFDLLAHPEQLPPRFSIQPEPICLADMLPDLTMLERMIAAANAGAQVCLICNLVDVAQVCYQRLKELNNTQVDIDLFHARFTLNDRREKENRVISNFGKNGKRNVGRILVATQVVEQSLDVDFDWLITQHCPADLLFQRLGRLHRHHRKYRPAGFEIPVATILLPDGEGYGRHEHIYSNVRVMWRTQQHIEELNGASLFFPDAYRQWLDSIYDDAEMDEPEWVGNGMDKFESAECEKRFKARKVLQWAEEYSLQDNDETILAVTRDGEMSLPLLPYVQTSSGKQLLDGQVYEDLSHEQQYEALALNRVNVPFTWKRSFSEVVDEDGLLWLEGKQNLDGWVWQGNSIVITYTGDEGMTRVIPANPK
# notes: Cas3, effector of the type I-E CRISPR/Cas complex of E. coli K12; source: E. coli BL21(DE3) or BL21(DE3)-SPEC, expressed in the cells (IPTG induction)
# B3: Cas1 of E. coli K12 Type I-E CRISPR/Cas complex (natural protein, UniProt Q46896 1-305, looked up)
# chain: MTWLPLNPIPLKDRVSMIFLQYGQIDVIDGAFVLIDKTGIRTHIPVGSVACIMLEPGTRVSHAAVRLAAQVGTLLVWVGEAGVRVYASGQPGGARSDKLLYQAKLALDEDLRLKVVRKMFELRFGEPAPARRSVEQLRGIEGSRVRATYALLAKQYGVTWNGRRYDPKDWEKGDTINQCISAATSCLYGVTEAAILAAGYAPAIGFVHTGKPLSFVYDIADIIKFDTVVPKAFEIARRNPGEPDREVRLACRDIFRSSKTLAKLIPLIEDVLAAGEIQPPAPPEDAQPVAIPLPVSLGDAGHRSS
# notes: Cas1, effector of the type I-E CRISPR/Cas complex of E. coli K12; source: E. coli BL21(DE3) or BL21(DE3)-SPEC, expressed in the cells (IPTG induction)
# Key:
# [1] = molecular target: Csy3 of Z. mobilis Type I-F CRISPR/Cas complex; assay: SPEC system (split protease-E. coli ClpXP) in E. coli cells; details: parent: 100; read off a plot
# [2] = molecular target: Csy4 of Z. mobilis Type I-F CRISPR/Cas complex; assay: as above; details: parent: 100; read off a plot
# [3] = molecular target: Csy2 of Z. mobilis Type I-F CRISPR/Cas complex; assay: as above; details: parent: 100; read off a plot
# [4] = molecular target: Csy1 of Z. mobilis Type I-F CRISPR/Cas complex (Zymomonas mobilis); assay: split reporter (BiFC, NanoBiT); SPEC profiling of CRISPR/Cas effectors and Cas3 / Cas2-3 mutants in E. coli cells; sfGFP fluorescence by flow cytometry; interaction intensity normalized to cells expressing wt HRV 3 C protease
# [5] = molecular target: Csy2 of Z. mobilis Type I-F CRISPR/Cas complex (Zymomonas mobilis); assay: as above
# [6] = molecular target: Csy4 of Z. mobilis Type I-F CRISPR/Cas complex (Zymomonas mobilis); assay: as above
# [7] = molecular target: Cas1 of Z. mobilis Type I-F CRISPR/Cas complex; assay: SPEC system (split protease-E. coli ClpXP) in E. coli cells; details: parent: 100; read off a plot
# [8] = molecular target: Cas1 of Z. mobilis Type I-F CRISPR/Cas complex (Zymomonas mobilis); assay: split reporter (BiFC, NanoBiT); SPEC profiling of CRISPR/Cas effectors and Cas3 / Cas2-3 mutants in E. coli cells; sfGFP fluorescence by flow cytometry; interaction intensity normalized to cells expressing wt HRV 3 C protease
# [9] = molecular target: Csy3 of Z. mobilis Type I-F CRISPR/Cas complex (Zymomonas mobilis); assay: as above
# [10] = molecular target: T1, Cas7 of E. coli K12 Type I-E CRISPR/Cas …; assay: as above; details: partners not purified
# [11] = molecular target: T2, Cas2 of E. coli K12 Type I-E CRISPR/Cas …; assay: as above; details: partners not purified
# [12] = molecular target: T3, Cas5 of E. coli K12 Type I-E CRISPR/Cas …; assay: as above; details: partners not purified
# [13] = molecular target: T4, Cas11 of E. coli K12 Type I-E …; assay: as above; details: partners not purified
molecule,measurement,setting,value
Cas2-3 of Z. mobilis Type I-F CRISPR/Cas complex S639A; T641A,percent of parent,[1],110%
same,percent of parent,[2],110%
same,percent of parent,[3],110%
Cas2-3 K127A (Z. mobilis Type I-F) (natural protein),normalized interaction intensity,[4],10%
same,normalized interaction intensity,[5],21%
Csy1 of Z. mobilis Type I-F CRISPR/Cas complex (natural protein),normalized interaction intensity,[6],> 80%
same,normalized interaction intensity,[5],> 80%
Cas2-3 of Z. mobilis Type I-F CRISPR/Cas complex D608N,percent of parent,[1],110%
same,percent of parent,[2],110%
same,percent of parent,[3],78%
Cas2-3 of Z. mobilis Type I-F CRISPR/Cas complex K127A,percent of parent,[1],110%
same,percent of parent,[2],110%
Cas2-3 K458N (Z. mobilis Type I-F) (natural protein),increase of the interaction over Cas2-3 wild type,[4],> 40%
Cas2-3 of Z. mobilis Type I-F CRISPR/Cas complex H123A,percent of parent,[1],110%
same,percent of parent,[2],110%
Cas2-3 D124A (Z. mobilis Type I-F) (natural protein),increase of the interaction over Cas2-3 wild type,[4],> 40%
Cas2-3 of Z. mobilis Type I-F CRISPR/Cas complex D124A,percent of parent,[1],110%
same,percent of parent,[7],95%
same,percent of parent,[2],110%
Cas2-3 of Z. mobilis Type I-F CRISPR/Cas complex K458N,percent of parent,[1],120%
same,percent of parent,[7],97%
same,percent of parent,[2],110%
same,percent of parent,[3],110%
Cas2-3 S639A/T641A (Z. mobilis Type I-F) (natural protein),increase of the interaction over Cas2-3 wild type,[4],> 40%
Cas2-3 of Z. mobilis Type I-F CRISPR/Cas complex (natural protein),normalized interaction intensity,[8],99%
same,normalized interaction intensity,[4],63%
same,normalized interaction intensity,[6],> 80%
same,normalized interaction intensity,[5],88%
same,normalized interaction intensity,[9],> 80%
Cas1 of Z. mobilis Type I-F CRISPR/Cas complex (natural protein),normalized interaction intensity,[6],> 80%
same,normalized interaction intensity,[5],> 80%
same,normalized interaction intensity,[9],14%
Cas2-3 D608N (Z. mobilis Type I-F) (natural protein),increase of the interaction over Cas2-3 wild type,[4],> 40%
Cas2-3 H123A (Z. mobilis Type I-F) (natural protein),increase of the interaction over Cas2-3 wild type,[4],> 40%
B1,normalized interaction intensity,[10],> 80%
B2,normalized interaction intensity,[11],56%
same,normalized interaction intensity,[12],> 80%
B3,normalized interaction intensity,[13],> 80%
same,normalized interaction intensity,[11],92%
same,normalized interaction intensity,[12],> 80%
